{
  "source": "patent US20250215412A1",
  "about": "(NOVOZYMES A S, published 2025)",
  "binders": {"B1": {"name": "Chryseobacterium sp-62563 propeptide (first polypeptide, propeptide domain), wildtype (other)", "chain": "NQDPNLVAKESNETAMKDFGKTVPVGIEKEDGKFKISFMVTAQPYEIKDSKENAAYISMIKTAVENETPIHVFLKANTNEIAKVDKATDDDIRYFKSVFTKEVKEENRK"}},
  "experiment_in_all_cases": "cell-based or functional assay",
  "key": {"[1]": {"molecular_target": "T1, Chryseobacterium sp-62563 deamidase V190F (Chryseobacterium sp-62563)", "T1 chain": "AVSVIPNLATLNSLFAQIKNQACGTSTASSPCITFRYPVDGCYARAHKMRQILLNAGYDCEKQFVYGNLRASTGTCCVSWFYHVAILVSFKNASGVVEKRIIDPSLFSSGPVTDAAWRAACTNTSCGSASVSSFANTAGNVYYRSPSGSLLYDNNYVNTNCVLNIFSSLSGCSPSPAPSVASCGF"}, "[2]": {"molecular_target": "T2, Chryseobacterium sp-62563 deamidase V190G (Chryseobacterium sp-62563)", "T2 chain": "T1 chain with F81G"}, "[3]": {"molecular_target": "T3, Chryseobacterium sp-62563 deamidase Y252S (Chryseobacterium sp-62563)", "T3 chain": "T1 chain with F81V, Y143S"}, "[4]": {"molecular_target": "T4, Chryseobacterium sp-62563 deamidase S254K (Chryseobacterium sp-62563)", "T4 chain": "T1 chain with F81V, S145K"}, "[5]": {"molecular_target": "T5, Chryseobacterium sp-62563 deamidase P255D (Chryseobacterium sp-62563)", "T5 chain": "T1 chain with F81V, P146D"}, "[6]": {"molecular_target": "T6, Chryseobacterium sp-62563 deamidase S258E (Chryseobacterium sp-62563)", "T6 chain": "T1 chain with F81V, S149E"}, "[7]": {"molecular_target": "T7, Chryseobacterium sp-62563 deamidase L260E (Chryseobacterium sp-62563)", "T7 chain": "T1 chain with F81V, L151E"}, "[8]": {"molecular_target": "T8, Chryseobacterium sp-62563 deamidase T268I (Chryseobacterium sp-62563)", "T8 chain": "T1 chain with F81V, T159I"}, "[9]": {"molecular_target": "T9, Chryseobacterium sp-62563 deamidase P285D (Chryseobacterium sp-62563)", "T9 chain": "T1 chain with F81V, P176D"}, "[10]": {"molecular_target": "T10, Chryseobacterium sp-62563 deamidase V111A (Chryseobacterium sp-62563)", "T10 chain": "T1 chain with V2A, F81V"}, "[11]": {"molecular_target": "T11, Chryseobacterium sp-62563 deamidase C169S (Chryseobacterium sp-62563)", "T11 chain": "T1 chain with C60S, F81V"}, "[12]": {"molecular_target": "T12, Chryseobacterium sp-62563 deamidase C230S (Chryseobacterium sp-62563)", "T12 chain": "T1 chain with F81V, C121S"}},
  "note": "Changes are numbered by the printed parent chain.",
  "data": [
    {"binder": "B1", "values": [
      {"measurement": "NanoDSF thermal unfolding temperature", "setting": "[1]", "value": 78.2, "unit": "° C."},
      {"measurement": "NanoDSF thermal unfolding temperature", "setting": "[2]", "value": 78, "unit": "° C."},
      {"measurement": "NanoDSF thermal unfolding temperature", "setting": "[3]", "value": 73.4, "unit": "° C."},
      {"measurement": "NanoDSF thermal unfolding temperature", "setting": "[4]", "value": 81.1, "unit": "° C."},
      {"measurement": "NanoDSF thermal unfolding temperature", "setting": "[5]", "value": 81.4, "unit": "° C."},
      {"measurement": "NanoDSF thermal unfolding temperature", "setting": "[6]", "value": 78.3, "unit": "° C."},
      {"measurement": "NanoDSF thermal unfolding temperature", "setting": "[7]", "value": 72.6, "unit": "° C."},
      {"measurement": "NanoDSF thermal unfolding temperature", "setting": "[8]", "value": 76.2, "unit": "° C."},
      {"measurement": "NanoDSF thermal unfolding temperature", "setting": "[9]", "value": 65.8, "unit": "° C."},
      {"measurement": "Leakage activity", "setting": "[10]", "value": 0, "unit": "%"},
      {"measurement": "Leakage activity", "setting": "[11]", "value": 0, "unit": "%"},
      {"measurement": "Leakage activity", "setting": "[12]", "value": 13, "unit": "%"}
    ]}
  ]
}
